Assay [1] addresses T1, D. melanogaster Par-6 PDZ domain (residues 156-255) (D. melanogaster, UniProt O97111 156-255).
T1 sequence (looked up): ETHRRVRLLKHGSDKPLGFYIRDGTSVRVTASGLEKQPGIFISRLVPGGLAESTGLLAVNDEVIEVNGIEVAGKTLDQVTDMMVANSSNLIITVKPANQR
The assay can be described thus: fluorescence polarisation. (In general: In fluorescence polarisation assays a small probe gives low polarisation when free and higher when bound to something large.)

Assay [2] concerns the target T2, TMR-CGYPKHREMAVDSP (Drosophila).
T2 peptide: Ac-C(TMR)GYPKHREMAVDSP-NH2
Kind of assay: fluorescence polarisation.

This passage reports Kd results from publication PMC3358930 (ACS synthetic biology, 2011).

Usually Kd stands for the constant that tells how readily two partners part at equilibrium.

In the case of Ac-C(TMR)GYPKHREMAAD-NH2 [TMR-CGYPKHREMAAD], the Kd in assay [1] was determined as 15 µM.

B1: PDZ-PxxP-COOH synthetic regulatory system without decoy ([Par-6 156-255]-PPPALPPKHREMAAD) (other, D. melanogaster)
chain: ETHRRVRLLKHGSDKPLGFYIRDGTSVRVTASGLEKQPGIFISRLVPGGLAESTGLLAVNDEVIEVNGIEVAGKTLDQVTDMMVANSSNLIITVKPANQRLPPPALPPKHREMAAD
B1 displayed a Kd in assay [2] of 48 µM.
